Reference: the supplement of paper PMC5998384

Columns and labels:
[1] = tested on: HeLa Kyoto; assay: solubility change mitosis vs G1/S (difference of NP-40 vs SDS log2 ratios) (log2 ratio difference); higher = more soluble in mitosis
[2] = tested on: HeLa Kyoto; assay: thermal stability score vs G1/S (z-score of summed log2 fold changes over temperatures); higher = more thermally stable than in G1/S
[3] = tested on: HeLa Kyoto; assay: solubility in G1/S (NP-40 vs SDS abundance) (log2 ratio); higher = more soluble; conditions: cell cycle stage: G1/S
[4] = tested on: HeLa Kyoto; assay: melting temperature (median over replicates), in situ; higher = more thermally stable
[5] = cell cycle stage: early G1 (4.5 h after nocodazole release)
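For melting temperature (median over replicates), in situ in this document: HeLa Kyoto cells synchronized by double thymidine or nocodazole block, proteins quantified by TMT10plex mass spectrometry, three independent biological replicates.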
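For solubility change mitosis vs G1/S (difference of NP-40 vs SDS log2 ratios) in this document: synchronized HeLa Kyoto cells (double thymidine block for G1/S, nocodazole release for mitosis), protein amounts in NP-40 versus SDS lysates quantified by mass spectrometry, three biological replicates.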
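For solubility in G1/S (NP-40 vs SDS abundance) in this document: HeLa Kyoto cells arrested at G1/S by double thymidine block, proteins quantified by TMT10plex mass spectrometry in mild NP-40 versus SDS extracts, three biological replicates.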
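For thermal stability score vs G1/S (z-score of summed log2 fold changes over temperatures) in this document: synchronized HeLa Kyoto cells, proteins quantified by TMT10plex mass spectrometry, three biological replicates, mitosis taken 0.5 h after nocodazole release, G1/S directly after double thymidine block.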

Sequence	solubility change mitosis (log2) [1]	thermal stability score [2, 5]	thermal stability score ([2]; cell cycle stage: mitosis)	solubility in G1/S (log2) [3]	melting temperature ([4]; cell cycle stage: G1/S)	melting temperature ([4]; cell cycle stage: mitosis)
MDGAAGPGDGPAREALQSLSQRLRVQEQEMELVKAALAEALRLLRLQVPPSSLQGSGTPAPPGDSLAAPPGLPPTCTPSLVSRGTQTETEVELKSSPGPPGLSNGPPAPQGASEEPSGTQSEGGGSSSSGAGSPGPPGILRPLQPPQRADTPRRNSSSSSSPSERPRQKLSRKAISSANLLVRSGSTESRGGKDPLSSPGGPGSRRSNYNLEGISVKMFLRGRPITMYIPSGIRSLEELPSGPPPETLSLDWVYGYRGRDSRSNLFVLRSGEVVYFIACVVVLYRPGGGPGGPGGGGQRHYRGHTDCVRCLAVHPDGVRVASGQTAGVDKDGKPLQPVVHIWDSETLLKLQEIGLGAFERGVGALAFSAADQGAFLCVVDDSNEHMLSVWDCSRGMKLAEIKSTNDSVLAVGFNPRDSSCIVTSGKSHVHFWNWSGGVGVPGNGTLTRKQGVFGKYKKPKFIPCFVFLPDGDILTGDSEGNILTWGRSPSDSKTPGRGGAKETYGIVAQAHAHEGSIFALCLRRDGTVLSGGGRDRRLVQWGPGLVALQEAEIPEHFGAVRAIAEGLGSELLVGTTKNALLRGDLAQGFSPVIQGHTDELWGLCTHPSQNRFLTCGHDRQLCLWDGESHALAWSIDLKETGLCADFHPSGAVVAVGLNTGRWLVLDTETREIVSDVIDGNEQLSVVRYSPDGLYLAIGSHDNVIYIYSVSSDGAKSSRFGRCMGHSSFITHLDWSKDGNFIMSNSGDYEILYWDVAGGCKQLKNRYESRDREWATYTCVLGFHVYGVWPDGSDGTDINSLCRSHNERVVAVADDFCKVHLFQYPCARAKAPSRMYGGHGSHVTSVRFTHDDSHLVSLGGKDASIFQWRVLGAGGAGPAPATPSRTPSLSPASSLDV [EML3]	-0.215	-0.497	0.0727	0.0248	51.6 °C	52 °C
MDGDGDPESVGQPEEASPEEQPEEASAEEERPEDQQEEEAAAAAAYLDELPEPLLLRVLAALPAAELVQACRLVCLRWKELVDGAPLWLLKCQQEGLVPEGGVEEERDHWQQFYFLSKRRRNLLRNPCGEEDLEGWCDVEHGGDGWRVEELPGDSGVEFTHDESVKKYFASSFEWCRKAQVIDLQAEGYWEELLDTTQPAIVVKDWYSGRSDAGCLYELTVKLLSEHENVLAEFSSGQVAVPQDSDGGGWMEISHTFTDYGPGVRFVRFEHGGQDSVYWKGWFGARVTNSSVWVEP [FBXO2]	-0.206	0.487	-0.484	-0.047	51.9 °C	50.8 °C
MDGETAEEQGGPVPPPVAPGGPGLGGAPGGRREPKKYAVTDDYQLSKQVLGLGVNGKVLECFHRRTGQKCALKLLYDSPKARQEVDHHWQASGGPHIVCILDVYENMHHGKRCLLIIMECMEGGELFSRIQERGDQAFTEREAAEIMRDIGTAIQFLHSHNIAHRDVKPENLLYTSKEKDAVLKLTDFGFAKETTQNALQTPCYTPYYVAPEVLGPEKYDKSCDMWSLGVIMYILLCGFPPFYSNTGQAISPGMKRRIRLGQYGFPNPEWSEVSEDAKQLIRLLLKTDPTERLTITQFMNHPWINQSMVVPQTPLHTARVLQEDKDHWDEVKEEMTSALATMRVDYDQVKIKDLKTSNNRLLNKRRKKQAGSSSASQGCNNQ [MAPKAPK3]	-0.141	0.292	1.45	0.454	49.1 °C	51.2 °C
MDGFAGSLDDSISAASTSDVQDRLSALESRVQQQEDEITVLKAALADVLRRLAISEDHVASVKKSVSSKGQPSPRAVIPMSCITNGSGANRKPSHTSAVSIAGKETLSSAAKSGTEKKKEKPQGQREKKEESHSNDQSPQIRASPSPQPSSQPLQIHRQTPESKNATPTKSIKRPSPAEKSHNSWENSDDSRNKLSKIPSTPKLIPKVTKTADKHKDVIINQEGEYIKMFMRGRPITMFIPSDVDNYDDIRTELPPEKLKLEWAYGYRGKDCRANVYLLPTGKIVYFIASVVVLFNYEERTQRHYLGHTDCVKCLAIHPDKIRIATGQIAGVDKDGRPLQPHVRVWDSVTLSTLQIIGLGTFERGVGCLDFSKADSGVHLCIIDDSNEHMLTVWDWQKKAKGAEIKTTNEVVLAVEFHPTDANTIITCGKSHIFFWTWSGNSLTRKQGIFGKYEKPKFVQCLAFLGNGDVLTGDSGGVMLIWSKTTVEPTPGKGPKGVYQISKQIKAHDGSVFTLCQMRNGMLLTGGGKDRKIILWDHDLNPEREIEVPDQYGTIRAVAEGKADQFLVGTSRNFILRGTFNDGFQIEVQGHTDELWGLATHPFKDLLLTCAQDRQVCLWNSMEHRLEWTRLVDEPGHCADFHPSGTVVAIGTHSGRWFVLDAETRDLVSIHTDGNEQLSVMRYSIDGTFLAVGSHDNFIYLYVVSENGRKYSRYGRCTGHSSYITHLDWSPDNKYIMSNSGDYEILYWDIPNGCKLIRNRSDCKDIDWTTYTCVLGFQVFGVWPEGSDGTDINALVRSHNRKVIAVADDFCKVHLFQYPCSKAKAPSHKYSAHSSHVTNVSFTHNDSHLISTGGKDMSIIQWKLVEKLSLPQNETVADTTLTKAPVSSTESVIQSNTPTPPPSQPLNETAEEESRISSSPTLLENSLEQTVEPSEDHSEEESEEGSGDLGEPLYEEPCNEISKEQAKATLLEDQQDPSPSS [EML4]	-0.0416	-1.11	-1.34	-0.0517	51 °C	50.3 °C
MDGGDDGNLIIKKRFVSEAELDERRKRRQEEWEKVRKPEDPEECPEEVYDPRSLYERLQEQKDRKQQEYEEQFKFKNMVRGLDEDETNFLDEVSRQQELIEKQRREEELKELKEYRNNLKKVGISQENKKEVEKKLTVKPIETKNKFSQAKLLAGAVKHKSSESGNSVKRLKPDPEPDDKNQEPSSCKSLGNTSLSGPSIHCPSAAVCIGILPGLGAYSGSSDSESSSDSEGTINATGKIVSSIFRTNTFLEAP [FAM192A]	-0.000768	-1.68	-2.27	0.194	57.6 °C	–
MDGIVTEVAVGVKRGSDELLSGSVLSSPNSNMSSMVVTANGNDSKKFKGEDKMDGAPSRVLHIRKLPGEVTETEVIALGLPFGKVTNILMLKGKNQAFLELATEEAAITMVNYYSAVTPHLRNQPIYIQYSNHKELKTDNTLNQRAQAVLQAVTAVQTANTPLSGTTVSESAVTPAQSPVLRIIIDNMYYPVTLDVLHQIFSKFGAVLKIITFTKNNQFQALLQYGDPVNAQQAKLALDGQNIYNACCTLRIDFSKLVNLNVKYNNDKSRDYTRPDLPSGDGQPALDPAIAAAFAKETSLLAVPGALSPLAIPNAAAAAAAAAAGRVGMPGVSAGGNTVLLVSNLNEEMVTPQSLFTLFGVYGDVQRVKILYNKKDSALIQMADGNQSQLAMNHLNGQKMYGKIIRVTLSKHQTVQLPREGLDDQGLTKDFGNSPLHRFKKPGSKNFQNIFPPSATLHLSNIPPSVAEEDLRTLFANTGGTVKAFKFFQDHKMALLQMATVEEAIQALIDLHNYNLGENHHLRVSFSKSTI [PTBP2]	-0.0237	0.234	0.47	0.308	48.8 °C	49 °C
MDGKRRPGPGPGVPPKRARGGLWDDDDAPRPSQFEEDLALMEEMEAEHRLQEQEEEELQSVLEGVADGQVPPSAIDPRWLRPTPPALDPQTEPLIFQQLEIDHYVGPAQPVPGGPPPSRGSVPVLRAFGVTDEGFSVCCHIHGFAPYFYTPAPPGFGPEHMGDLQRELNLAISRDSRGGRELTGPAVLAVELCSRESMFGYHGHGPSPFLRITVALPRLVAPARRLLEQGIRVAGLGTPSFAPYEANVDFEIRFMVDTDIVGCNWLELPAGKYALRLKEKATQCQLEADVLWSDVVSHPPEGPWQRIAPLRVLSFDIECAGRKGIFPEPERDPVIQICSLGLRWGEPEPFLRLALTLRPCAPILGAKVQSYEKEEDLLQAWSTFIRIMDPDVITGYNIQNFDLPYLISRAQTLKVQTFPFLGRVAGLCSNIRDSSFQSKQTGRRDTKVVSMVGRVQMDMLQVLLREYKLRSYTLNAVSFHFLGEQKEDVQHSIITDLQNGNDQTRRRLAVYCLKDAYLPLRLLERLMVLVNAVEMARVTGVPLSYLLSRGQQVKVVSQLLRQAMHEGLLMPVVKSEGGEDYTGATVIEPLKGYYDVPIATLDFSSLYPSIMMAHNLCYTTLLRPGTAQKLGLTEDQFIRTPTGDEFVKTSVRKGLLPQILENLLSARKRAKAELAKETDPLRRQVLDGRQLALKVSANSVYGFTGAQVGKLPCLEISQSVTGFGRQMIEKTKQLVESKYTVENGYSTSAKVVYGDTDSVMCRFGVSSVAEAMALGREAADWVSGHFPSPIRLEFEKVYFPYLLISKKRYAGLLFSSRPDAHDRMDCKGLEAVRRDNCPLVANLVTASLRRLLIDRDPEGAVAHAQDVISDLLCNRIDISQLVITKELTRAASDYAGKQAHVELAERMRKRDPGSAPSLGDRVPYVIISAAKGVAAYMKSEDPLFVLEHSLPIDTQYYLEQQLAKPLLRIFEPILGEGRAEAVLLRGDHTRCKTVLTGKVGGLLAFAKRRNCCIGCRTVLSHQGAVCEFCQPRESELYQKEVSHLNALEERFSRLWTQCQRCQGSLHEDVICTSRDCPIFYMRKKVRKDLEDQEQLLRRFGPPGPEAW [POLD1]	-0.101	5.56	6.68	-0.0376	48.3 °C	49.1 °C
MDGRTPRPQDAPARRKPKAKAPLPPAETKYTDVSSAADSVESTAFIMEQKENMIDKDVELSVVLPGDIIKSTTVHGSKPMMDLLIFLCAQYHLNPSSYTIDLLSAEQNHIKFKPNTPIGMLEVEKVILKPKMLDKKKPTPIIPEKTVRVVINFKKTQKTIVRVSPHASLQELAPIICSKCEFDPLHTLLLKDYQSQEPLDLTKSLNDLGLRELYAMDVNRESCQISQNLDIMKEKENKGFFSFFQRSKKKRDQTASAPATPLVNKHRPTFTRSNTISKPYISNTLPSDAPKKRRAPLPPMPASQSVPQDLAHIQERPASCIVKSMSVDETDKSPCEAGRVRAGSLQLSSMSAGNSSLRRTKRKAPSPPSKIPPHQSDENSRVTALQPVDGVPPDSASEANSPEELSSPAGISSDYSLEEIDEKEELSEVPKVEAENISPKSQDIPFVSTDIINTLKNDPDSALGNGSGEFSQNSMEEKQETKSTDGQEPHSVVYDTSNGKKVVDSIRNLKSLGPNQENVVQNEIIVYPENTEDNMKNGVKKTEINVEGVAKNNNIDMEVERPSNSEAHETDTAISYKENHLAASSVPDQKLNQPSAEKTKDAAIQTTPSCNSFDGKHQDHNLSDSKVEECVQTSNNNISTQHSCLSSQDSVNTSREFRSQGTLIIHSEDPLTVKDPICAHGNDDLLPPVDRIDKNSTASYLKNYPLYRQDYNPKPKPSNEITREYIPKIGMTTYKIVPPKSLEISKDWQSETIEYKDDQDMHALGKKHTHENVKETAIQTEDSAISESPEEPLPNLKPKPNLRTEHQVPSSVSSPDDAMVSPLKPAPKMTRDTGTAPFAPNLEEINNILESKFKSRASNAQAKPSSFFLQMQKRVSGHYVTSAAAKSVHAAPNPAPKELTNKEAERDMLPSPEQTLSPLSKMPHSVPQPLVEKTDDDVIGQAPAEASPPPIAPKPVTIPASQVSTQNLKTLKTFGAPRPYSSSGPSPFALAVVKRSQSFSKERTESPSASALVQPPANTEEGKTHSVNKFVDIPQLGVSDKENNSAHNEQNSQIPTPTDGPSFTVMRQSSLTFQSSDPEQMRQSLLTAIRSGEAAAKLKRVTIPSNTISVNGRSRLSHSMSPDAQDGH [COBLL1]	-0.0197	-0.155	-0.336	0.0471	50.5 °C	50.8 °C
